The results in this text go back to paper PMC9646525, “Cryo-EM structure of the SEA complex” (Nature, 2022).

First the molecules themselves.
T1: Sea2 (S. cerevisiae (endogenous in yeast …, UniProt Q08281 1-1341))
T1 construct: Sea2, S. cerevisiae, endogenous subunit of the SEAC (SEACAT, core); Native protein of the purified complex; two copies in the SEAC; source: endogenous, yeast cells expressing Sea4-TAP; in lysate and co-purified with Sea4-TAP (IgG Dynabeads, TEV elution)
T1 sequence (looked up): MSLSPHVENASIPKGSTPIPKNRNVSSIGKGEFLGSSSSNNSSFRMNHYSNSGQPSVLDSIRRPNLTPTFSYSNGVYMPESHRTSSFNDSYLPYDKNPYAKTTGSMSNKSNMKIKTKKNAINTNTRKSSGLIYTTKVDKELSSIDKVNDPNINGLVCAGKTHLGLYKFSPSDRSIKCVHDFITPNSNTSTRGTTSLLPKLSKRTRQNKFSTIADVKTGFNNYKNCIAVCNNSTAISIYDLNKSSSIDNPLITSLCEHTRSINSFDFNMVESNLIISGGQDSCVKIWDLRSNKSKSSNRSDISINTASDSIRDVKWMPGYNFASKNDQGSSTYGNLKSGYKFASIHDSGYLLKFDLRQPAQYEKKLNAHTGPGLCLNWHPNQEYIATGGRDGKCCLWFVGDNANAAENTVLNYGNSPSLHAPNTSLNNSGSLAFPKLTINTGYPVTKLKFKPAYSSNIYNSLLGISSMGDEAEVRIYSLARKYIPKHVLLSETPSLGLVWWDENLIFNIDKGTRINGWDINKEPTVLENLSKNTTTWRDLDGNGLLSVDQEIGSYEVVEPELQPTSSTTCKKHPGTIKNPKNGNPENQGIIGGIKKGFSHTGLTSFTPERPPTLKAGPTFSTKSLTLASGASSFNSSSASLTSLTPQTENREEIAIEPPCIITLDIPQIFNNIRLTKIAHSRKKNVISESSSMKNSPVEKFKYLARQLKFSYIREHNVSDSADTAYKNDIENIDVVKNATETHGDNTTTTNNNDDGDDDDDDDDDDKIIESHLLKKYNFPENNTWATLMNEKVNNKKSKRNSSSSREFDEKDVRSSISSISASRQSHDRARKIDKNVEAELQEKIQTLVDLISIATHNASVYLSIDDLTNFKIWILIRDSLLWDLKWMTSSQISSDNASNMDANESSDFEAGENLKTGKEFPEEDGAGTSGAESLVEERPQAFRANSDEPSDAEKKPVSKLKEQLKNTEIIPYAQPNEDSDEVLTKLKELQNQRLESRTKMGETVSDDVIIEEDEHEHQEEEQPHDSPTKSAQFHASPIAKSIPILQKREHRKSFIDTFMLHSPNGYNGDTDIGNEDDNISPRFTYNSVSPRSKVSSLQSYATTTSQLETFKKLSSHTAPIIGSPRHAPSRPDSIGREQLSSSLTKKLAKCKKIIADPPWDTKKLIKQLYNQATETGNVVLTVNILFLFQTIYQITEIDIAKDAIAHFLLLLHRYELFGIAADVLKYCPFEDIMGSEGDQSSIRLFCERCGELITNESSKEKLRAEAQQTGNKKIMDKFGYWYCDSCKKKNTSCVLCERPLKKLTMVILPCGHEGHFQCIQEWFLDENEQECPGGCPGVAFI

B1: Sec13 (natural protein, UniProt Q04491 1-297, looked up)
chain: MVVIANAHNELIHDAVLDYYGKRLATCSSDKTIKIFEVEGETHKLIDTLTGHEGPVWRVDWAHPKFGTILASCSYDGKVLIWKEENGRWSQIAVHAVHSASVNSVQWAPHEYGPLLLVASSDGKVSVVEFKENGTTSPIIIDAHAIGVNSASWAPATIEEDGEHNGTKESRKFVTGGADNLVKIWKYNSDAQTYVLESTLEGHSDWVRDVAWSPTVLLRSYLASVSQDRTCIIWTQDNEQGPWKKTLLKEEKFPDVLWRASWSLSGNVLALSGGDNKVTLWKENLEGKWEPAGEVHQ
notes: Sec13, S. cerevisiae, endogenous subunit of the SEAC (SEACAT, core); Native protein of the purified complex; two copies in the SEAC; source: endogenous, yeast cells expressing Sea4-TAP; in lysate and co-purified with Sea4-TAP (IgG Dynabeads, TEV elution)
B2: Npr2 (natural protein, UniProt P39923 1-615, looked up)
chain: MLSYFQGFVPIHTIFYSVFHPTEGSKIKYEFPPNNLKNHGINFNTFKNYIIPKPILCHKLITFKYGTYRIVCYPVTINSPIYARNFFSFNFVFVFPYDCETSPYEPAITRLGKMFKVLEEQNQLLSKSERDPVFFDLKVLENSTTTPSTAGPSSTPNPSSNTTPTHPTSEKDTKDMRSSRYSDLIKDLGLPQSAFSIQDLLMRIFQDLNNYSECLIPIDEGNAVDIKIFPLLRPPTTCVSLEDVPLSSVNLKKIIDVNWDPTMMSIVPYIDGLNSIAKISKLSNSDPGLVIECIRHLIYYKCVTLSDIFQFSNIYAPSSLIRNFLTDPLMASDCQSYVTFPEVSKISNLPLNKSLGSGDQDSPSFSVRRKSKSSSIPSNPDSRTTSFSSTSRVSQNSSLNSSFSSIYKDWRQSQTSCSSSNIHVINNRNRFLPTRSCLFDLYRSLSQGQTLKTWYESKYMILKENNIDIRRFITFGLEKRIIYRCYSFPVMINAGSREPKEMTPIITKDLVNNDKLLEKRNHNHLLSATGSRNTAQSGNLKPERPSKVSFEMQRVSSLATGKSTMPKLSDEEEGILEESIRNAETFDKICVLLSKPKLEVESYLNELGEFKVINS
notes: Npr2, S. cerevisiae, endogenous subunit of the SEAC (SEACIT, wing); Native protein of the purified complex; two copies in the SEAC; source: endogenous, yeast cells expressing Sea4-TAP or Sea1-TAP; in lysate and co-purified with the tagged subunit (IgG Dynabeads, TEV elution)
B3: Sea3 (natural protein, UniProt Q03897 1-1148, looked up)
chain: MCSSINEGPYNSPTFGKSLSLKVDGGFNAVSINPSGRDIVLASRQGLYIIDLDDPFTPPRWLHHITPWQVADVQWSPHPAKPYWIVSTSNQKAIIWNLAKSSSNAIEFVLHGHSRAITDINFNPQHPDVLATCSVDTYVHAWDMRSPHRPFYSTSSWRSAASQVKWNYKDPNVLASSHGNDIFVWDLRKGSTPLCSLKGHVSSVNSIDFNRFKYSEIMSSSNDGTVKFWDYSKSTTESKRTVTTNFPIWRGRYLPFGEGYCIMPMVGGNNAVYLINLCDDDDSEQNKKTKLQPIYAFKGHSDRVIDFLWRSRHTCDGDYDDREFQLVTWSKDCDLKLWPISDSIYGKVNFDRGKRLEEKLPDYDYCSYNKEPENRENVQKNEFRRLRENFVTTSGLKKNKTNHITWLSGIRMNSATSQEDLFNETKIQNLGEEVSAIGHKFPKVVFEKISVSTRELCLTLNGPWSEENPDDYIFLRISINFPLNYPNKGDPPKFTIEENSNLTMSKRQEILSNLATIGQKYTDSNLYCLEPCIRFVLGEKVSLEDIEEGQEPLLNFDIADHIDFEELSSLDSSYSDSQNPENLSSQSDIESYKEALVFPDTSNQGLDFGRNLALDTTPVPNGCGSCWTATGELFCFFANEKKPEKKQNAIIKLSQKEAGVEKHPFKIEPQVLYDKEVDSSVITAADELKARPKRYVDTLGLGGGTNGDSRTYFDDETSSDDSFDSVADDWDDILRNDIIVRTKIPILRGNFKAFSSVHSESGKTVESTKKNKNLVISKNFSSLLSDRKELALEYLFMDATPEGFARNNALVAEKFDLDEISHCWQILSDMLIDQSDYDPYTTIWNNHPMGIKWFIKEAIVYFERQQNLQMLAMLCCVILSARRKKIPARYYGQELENMEGTIVFNDNESQNTSFWKGSDAFSTRSRSSTVTPNFYGNHLRGKNIHGGDNSSIRSDDHHARLRTHNTLNGSSKFTEPAQKQGSRAISSSPFHSRMPDIKVELLHDDIIEAYEQEDLLHLEVSDIPKFQTYIYQYSKLLFRWGLPLERVKILKVSTDFRSSYSSQGIPPNNNKKSPYNGVLTHWIENNEFGEEKFLARNCNYCDLRVTRSSFICGNCQHVLHSSCARIWWEIGDECPSGCGCNCPEMFDA
notes: Sea3, S. cerevisiae, endogenous subunit of the SEAC; Sea3^SIP (Sea3^Nter) lies in the wing, Sea3^SAP (Sea3^Cter) in the core; Native protein of the purified complex; two copies in the SEAC; source: endogenous, yeast cells expressing Sea4-TAP; in lysate and co-purified with Sea4-TAP (IgG Dynabeads, TEV elution)

Holding throughout (experiment): cryo-EM structure; endogenous SEAC purified from yeast via Sea4-TAP (IgG Dynabeads, TEV elution in 20 mM HEPES-NaOH pH 7.4, 300 mM NaCl, 2 mM DTT), on graphene-oxide-coated grids
Holding throughout (details): both partners purified

The target in assay [1] is B3.
The target of assay [2] is T2, Sea1 (S. cerevisiae (endogenous in yeast …, UniProt P47170 1-1584)).
T2 construct: Sea1 (Iml1), S. cerevisiae, endogenous subunit of the SEAC (SEACIT, wing); Native protein of the purified complex; two copies in the SEAC; also called Iml1; Sea1/Iml1; source: endogenous, yeast cells expressing Sea4-TAP; in lysate and co-purified with Sea4-TAP (IgG Dynabeads, TEV elution)

The target of assay [3] is T1, Sea2.

T2 sequence (P47170 whole entry): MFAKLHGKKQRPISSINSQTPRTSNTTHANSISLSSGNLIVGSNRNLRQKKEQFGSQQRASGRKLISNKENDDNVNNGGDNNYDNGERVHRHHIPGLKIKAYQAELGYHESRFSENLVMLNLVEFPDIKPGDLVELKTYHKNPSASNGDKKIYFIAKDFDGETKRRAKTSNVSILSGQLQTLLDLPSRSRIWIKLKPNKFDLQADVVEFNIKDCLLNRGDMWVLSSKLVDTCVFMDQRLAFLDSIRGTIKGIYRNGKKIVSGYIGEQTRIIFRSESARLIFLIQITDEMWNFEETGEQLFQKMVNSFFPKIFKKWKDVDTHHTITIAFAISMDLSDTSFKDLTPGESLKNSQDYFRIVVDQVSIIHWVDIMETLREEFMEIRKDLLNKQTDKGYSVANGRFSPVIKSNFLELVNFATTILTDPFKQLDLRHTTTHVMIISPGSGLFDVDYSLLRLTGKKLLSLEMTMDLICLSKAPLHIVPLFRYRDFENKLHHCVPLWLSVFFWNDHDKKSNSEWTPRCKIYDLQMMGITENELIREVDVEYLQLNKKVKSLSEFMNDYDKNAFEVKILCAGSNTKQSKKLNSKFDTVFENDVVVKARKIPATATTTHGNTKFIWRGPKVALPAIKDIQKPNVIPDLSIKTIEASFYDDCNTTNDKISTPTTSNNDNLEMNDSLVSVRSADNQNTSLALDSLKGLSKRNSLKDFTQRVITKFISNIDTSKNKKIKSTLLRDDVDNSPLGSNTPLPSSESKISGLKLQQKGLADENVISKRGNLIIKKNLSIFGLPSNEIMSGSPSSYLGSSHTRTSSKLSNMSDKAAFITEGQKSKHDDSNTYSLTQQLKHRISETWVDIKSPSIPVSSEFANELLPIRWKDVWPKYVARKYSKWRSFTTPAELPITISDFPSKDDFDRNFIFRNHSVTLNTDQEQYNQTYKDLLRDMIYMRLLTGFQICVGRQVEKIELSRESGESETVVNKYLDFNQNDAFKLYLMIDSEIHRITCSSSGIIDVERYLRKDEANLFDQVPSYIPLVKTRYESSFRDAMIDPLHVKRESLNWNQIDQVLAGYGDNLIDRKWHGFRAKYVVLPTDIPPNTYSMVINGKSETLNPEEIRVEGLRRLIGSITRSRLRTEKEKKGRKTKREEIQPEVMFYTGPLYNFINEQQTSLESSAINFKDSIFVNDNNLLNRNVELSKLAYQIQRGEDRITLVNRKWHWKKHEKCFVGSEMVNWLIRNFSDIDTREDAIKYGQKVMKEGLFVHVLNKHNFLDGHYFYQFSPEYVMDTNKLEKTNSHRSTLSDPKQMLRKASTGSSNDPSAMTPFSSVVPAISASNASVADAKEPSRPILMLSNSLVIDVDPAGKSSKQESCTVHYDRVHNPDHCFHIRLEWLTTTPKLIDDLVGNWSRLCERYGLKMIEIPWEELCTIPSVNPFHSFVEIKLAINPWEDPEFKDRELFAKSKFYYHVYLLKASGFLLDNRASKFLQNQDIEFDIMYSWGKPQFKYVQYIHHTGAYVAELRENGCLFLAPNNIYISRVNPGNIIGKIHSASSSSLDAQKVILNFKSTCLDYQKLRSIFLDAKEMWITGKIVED

B1: the binding result in assay [1] is recorded as “binds”.

Turning to B2, the binding result in assay [1] and in assay [2] was “binds” in each case.

Regarding B3, the binding result in assay [2] and in assay [3] was “binds” each time.
